What all share (assay type): cell-based
The target in one experiment is T1, CD40 (Homo sapiens, UniProt P25942).
T1 construct: expressed in transfected cells; host or cells: HEK 293T
Description: Recruitment of NIK to CD40 via TRAF2 in 293T cells, anti-CD40 capture ELISA with anti NIK detection. From the text:
The assay described in example 1 can be used to measure recruitment of signal proteins, e.g. NIK (a downstream mediator in the NF-κB pathway Malinin et al. 1997) to a cytokine receptor, e.g. CD40 via an adaptor protein e.g. TRAF2. Expression plasmids encoding CD40, TRAF2, NIK (in pcDNA3.1) and myc-tagged IKKα were co-transfected into 293T (at a ratio of 1:1.75:1.75:1.75 respectively). Empty vector was used to equalize the amount of transfected DNA. The transfection was done as described for example 1. Twenty seven hours later the cells were extracted as described in example 1. The lysates were incubated with ELISA plates coated with an anti CD40 mAb (R01, Schwabe et al. 1997). After two hours the plates were washed with PBS/tween and developed with a commercially available rabbit anti NIK antibody (Santa Cruz at 1:100 dilution, SC-6363) and HRP-labeled goat anti rabbit Ig antibody (Pharmingen). The recruitment assay for NIK is schematically represented in FIG. 5A.
In general terms: ELISA stands for enzyme-linked immunosorbent assay.

Another experiment deals with T2, CD27 (Homo sapiens, UniProt P25942+P26842).
T2 construct: cDNA fragments encoding for the transmembrane and cytoplasmic domains of the LTβR, TACI, the p75TNF receptor, CD27; expressed in transfected cells; host or cells: 293T
Put plainly: Recruitment assay with hybrid receptor (CD40 extracellular domain, CD27 transmembrane and intracellular domain). The conditions noted are these: 293T cells. The method, then:
(§1) The recruitment of TRAF to CD40 can be quantitatively measured using the assay described in example 1. For that purpose, the assay conditions were adjusted in such a way that TRAF expression was in significant excess over the expression of CD40. This was the case when the TRAF expression plasmid was used at a two to three fold excess over the CD40 expression plasmid. The CD40 bound TRAF concentration was measured as described in example 1. A reference extract containing CD40/TRAF complexes served as a standard in each assay. This standard extract consisted of a large pool extract from cells that had been co-transfected with the plasmids encoding CD40/TRAF1, CD40/TRAF2, CD40/TRAF3, CD40/TRAF5 and CD40/TRAF6. The extracts were tested for the presence of CD40/TRAF complexes and the complex concentrations in each extract were arbitrarily defined as 1000 U/ml. The extracts were frozen in small aliquots and kept at −80° C. until further use. By comparing unknown samples to these extracts, it was possible to determine the relative CD40-TRAF complex concentrations in arbitrary units. The necessary normalization for sample-to-sample variations in the CD40 expression was calculated with the following formula: […]

A further experiment addresses T3, p75TNFR (Homo sapiens, UniProt P20333+P25942).
T3 construct: cDNA fragments encoding for the transmembrane and cytoplasmic domains of the LTβR, TACI, the p75TNF receptor, CD27; expressed in transfected cells; host or cells: 293T
Put plainly: Recruitment assay with hybrid receptor (CD40 extracellular domain, p75TNFR transmembrane and intracellular domain). The note with it: 293T cells. As to the method: as §1, with “By comparing unknown samples to these extracts, it was possible to determine the relative CD40-TRAF complex concentrations in arbitrary units.” left out
Recruitment of various TRAFs to receptors different to CD40, was tested by the recruitment assay described in example 1 by transforming cells with expression plasmids encoding hybrids receptors comprising the extracellular domain of CD40 and transmembrane and intracellular domain of anyone of the following receptors: BCMA (Madry et al. 1998 and Hatzoglou et al. 2000) the LTβR-receptor (Mosialos et al. 1995, Crowe et al. 1994, Nakano et al. 1996), TACI (von Bulow et al. 1997, Xia et al. 2000) the p75TNFR (Rothe et al. 1994) and the CD27 (Gravestein et al. 1998, Akiba et al. 1998) (for details of constructs see example 7). Measurement of TRAF recruitment to the signalling domains of BCMA the LTβR-receptor TACI the p75TNFR or the CD27 was carried out by co-transfecting 293T cells with a plasmid encoding anyone of the above hybrid receptors together with a plasmid encoding TRAF and measurement of the TRAF/Receptor complex using the ELISA sandwich described in example 1 and the quantitation as described in example 3. […]

A further experiment concerns the target T4, BCMA (Homo sapiens, UniProt P25942+Q02223).
T4 construct: transmembrane and intracellular domain of anyone of the following receptors: BCMA; expressed in transfected cells; host or cells: 293T
Put plainly: Recruitment assay with hybrid receptor (CD40 extracellular domain, BCMA transmembrane and intracellular domain). The note with it: 293T cells. As to the method: as §1

The next experiment deals with T5, LTβR (Homo sapiens, UniProt P25942+P36941).
T5 construct: cDNA fragments encoding for the transmembrane and cytoplasmic domains of the LTβR, TACI, the p75TNF receptor, CD27; expressed in transfected cells; host or cells: 293T
Description: Recruitment assay with hybrid receptor (CD40 extracellular domain, LTβR transmembrane and intracellular domain). The conditions noted are these: 293T cells. The method, then:
as §1
Recruitment of various TRAFs to receptors different to CD40, was tested by the recruitment assay described in example 1 by transforming cells with expression plasmids encoding hybrids receptors comprising the extracellular domain of CD40 and transmembrane and intracellular domain of anyone of the following receptors: BCMA (Madry et al. 1998 and Hatzoglou et al. 2000) the LTβR-receptor (Mosialos et al. 1995, Crowe et al. 1994, Nakano et al. 1996), TACI (von Bulow et al. 1997, Xia et al. 2000) the p75TNFR (Rothe et al. 1994) and the CD27 (Gravestein et al. 1998, Akiba et al. 1998) (for details of constructs see example 7). Measurement of TRAF recruitment to the signalling domains of BCMA the LTβR-receptor TACI the p75TNFR or the CD27 was carried out by co-transfecting 293T cells with a plasmid encoding anyone of the above hybrid receptors together with a plasmid encoding TRAF and measurement of the TRAF/Receptor complex using the ELISA sandwich described in example 1 and the quantitation as described in example 3. The assay with the hybrid receptors is schematically represented in FIG. 4A. The results shown in FIG. 4B indicate that, using the assay monitoring recruitment in intact cells, any TRAF recruiting receptor of the TNF/NGF family can be examined with the same antibody sandwich assay described in example 1 and the amount of TRAF-receptor/CD40 hybrid complex can be monitored as described in example 3. […] Recruitment of TRAF3 to all the receptors tested is similar. […]

The next experiment addresses T6, CD40 mutants (Homo sapiens, UniProt P25942, E235A).
T6 construct: expressed in transfected cells; host or cells: 293T
Description: Recruitment assay in intact cells with CD40 mutants (deletions or point mutations in TRAF binding sites). The conditions noted are these: E235A, relative to wild type CD40. As to the method: The lysates were cleared by centrifugation at 15000 G at 4° C. in a micro-centrifuge, 3 fold serially diluted (with lysis buffer containing 1% bovine serum albumin) and then every diluted sample incubated for 2 hours at room temperature (or overnight) in wells of ELISA microtiter plates coated with a mAb (Ro1) specific to the CD40 extra-cellular domain (Schwabe et al. 1997). For control purposes, instead of the wild type CD40 plasmid, a plasmid encoding a CD40 mutant lacking the entire signaling domain was used for transfection and transient expression (CD401-222, FIG. 1B). Following incubation exhaustive washes were carried out on the microtiter plates to remove any unbound protein [about 10 washing steps with PBS containing 0.05% Tween 20) PBS/Tween)]. To detect bound TRAF1, anti TRAF1 specific antibodies were loaded into the plates, incubated for about 3 hours at room temperature, […] by extensive washes to remove unbound antibody and detecting the bound antibody with an HRP conjugated secondary antibody. All antibodies (except when used as solid phase antibody) were diluted in PBS/Tween containing 1% BSA.
as §1
The quantitative version of the TRAF recruitment assay as described in example 3 was used to compare CD40 and various CD40 mutants with respect to their TRAF recruitment behaviour. TRAF 1, 2, 3, 5 and 6 were examined. […] Additional deletion of the TRAF1/2/3/5 binding motif PXQXT254 at amino acid position 250 to 254 reduced the binding of all 5 TRAFs test to background levels (1-254EA in FIG. 3B). […]

A further experiment addresses T7, TACI (Homo sapiens, UniProt O14836+P25942).
T7 construct: cDNA fragments encoding for the transmembrane and cytoplasmic domains of the LTβR, TACI, the p75TNF receptor, CD27; expressed in transfected cells; host or cells: 293T
Description: Recruitment assay with hybrid receptor (CD40 extracellular domain, TACI transmembrane and intracellular domain). The conditions noted are these: 293T cells. The method, then:
as §1

T1 sequence (P25942 21-277): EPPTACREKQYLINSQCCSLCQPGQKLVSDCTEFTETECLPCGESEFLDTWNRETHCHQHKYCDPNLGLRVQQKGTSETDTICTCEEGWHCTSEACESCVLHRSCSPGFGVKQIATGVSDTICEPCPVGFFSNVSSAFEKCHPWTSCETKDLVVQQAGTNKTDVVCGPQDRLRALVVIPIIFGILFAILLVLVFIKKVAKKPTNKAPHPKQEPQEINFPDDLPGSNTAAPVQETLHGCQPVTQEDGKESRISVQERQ
T5 sequence (P25942+P36941 fused): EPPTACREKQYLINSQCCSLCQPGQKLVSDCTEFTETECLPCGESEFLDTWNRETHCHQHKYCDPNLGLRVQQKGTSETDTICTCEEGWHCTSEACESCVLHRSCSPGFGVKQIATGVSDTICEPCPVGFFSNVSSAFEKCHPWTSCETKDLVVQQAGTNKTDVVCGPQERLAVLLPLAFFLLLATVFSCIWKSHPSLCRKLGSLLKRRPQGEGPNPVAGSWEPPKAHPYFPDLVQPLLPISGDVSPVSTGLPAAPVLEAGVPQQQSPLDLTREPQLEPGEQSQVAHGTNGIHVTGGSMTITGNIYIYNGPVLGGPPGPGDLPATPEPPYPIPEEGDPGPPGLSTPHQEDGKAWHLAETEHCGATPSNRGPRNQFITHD
T6 sequence (P25942 21-277 E235A): as the sequence (P25942 21-277) above, with E215A counted along it
T2 sequence (P25942+P26842 fused, species assumed): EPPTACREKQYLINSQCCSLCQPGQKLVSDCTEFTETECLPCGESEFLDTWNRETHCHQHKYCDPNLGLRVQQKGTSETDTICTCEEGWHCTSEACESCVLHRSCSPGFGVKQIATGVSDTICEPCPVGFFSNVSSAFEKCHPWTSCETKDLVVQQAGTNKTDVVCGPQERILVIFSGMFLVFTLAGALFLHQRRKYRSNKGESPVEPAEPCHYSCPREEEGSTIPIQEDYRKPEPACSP
T4 sequence (P25942+Q02223 fused, species assumed): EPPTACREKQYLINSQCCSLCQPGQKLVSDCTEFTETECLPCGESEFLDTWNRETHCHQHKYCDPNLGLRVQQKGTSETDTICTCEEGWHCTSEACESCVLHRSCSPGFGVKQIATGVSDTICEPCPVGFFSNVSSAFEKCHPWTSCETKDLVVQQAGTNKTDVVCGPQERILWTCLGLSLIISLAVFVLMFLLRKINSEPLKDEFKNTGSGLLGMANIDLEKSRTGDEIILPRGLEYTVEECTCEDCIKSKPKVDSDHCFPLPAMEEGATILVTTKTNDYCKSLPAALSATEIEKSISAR
T3 sequence (P25942+P20333 fused): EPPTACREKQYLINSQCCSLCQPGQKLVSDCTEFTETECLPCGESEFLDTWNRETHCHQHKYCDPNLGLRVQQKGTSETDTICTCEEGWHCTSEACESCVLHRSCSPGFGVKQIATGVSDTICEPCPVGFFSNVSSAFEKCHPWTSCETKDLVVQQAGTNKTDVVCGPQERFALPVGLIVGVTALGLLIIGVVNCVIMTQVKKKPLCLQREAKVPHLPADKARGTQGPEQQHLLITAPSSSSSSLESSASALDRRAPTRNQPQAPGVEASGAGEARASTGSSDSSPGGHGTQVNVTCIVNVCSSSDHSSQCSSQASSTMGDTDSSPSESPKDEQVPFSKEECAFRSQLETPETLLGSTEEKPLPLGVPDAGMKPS
T7 sequence (P25942+O14836 fused, species assumed): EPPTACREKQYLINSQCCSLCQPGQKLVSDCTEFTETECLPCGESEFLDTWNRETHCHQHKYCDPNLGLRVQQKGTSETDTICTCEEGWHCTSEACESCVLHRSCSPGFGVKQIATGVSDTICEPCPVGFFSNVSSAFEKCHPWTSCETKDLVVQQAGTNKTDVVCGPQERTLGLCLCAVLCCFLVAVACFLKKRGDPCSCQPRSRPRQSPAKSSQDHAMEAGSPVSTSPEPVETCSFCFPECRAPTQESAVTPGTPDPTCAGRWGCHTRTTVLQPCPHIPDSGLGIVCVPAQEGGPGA

B1: NIK: kinase, a downstream mediator in the NF-κB pathway, recruited to CD40 via TRAF2 (protein, UniProt Q99558 1-947, looked up)
Mitogen-activated protein …: MAVMEMACPGAPGSAVGQQKELPKAKEKTPPLGKKQSSVYKLEAVEKSPVFCGKWEILNDVITKGTAKEGSEAGPAAISIIAQAECENSQEFSPTFSERIFIAGSKQYSQSESLDQIPNNVAHATEGKMARVCWKGKRRSKARKKRKKKSSKSLAHAGVALAKPLPRTPEQESCTIPVQEDESPLGAPYVRNTPQFTKPLKEPGLGQLCFKQLGEGLRPALPRSELHKLISPLQCLNHVWKLHHPQDGGPLPLPTHPFPYSRLPHPFPFHPLQPWKPHPLESFLGKLACVDSQKPLPDPHLSKLACVDSPKPLPGPHLEPSCLSRGAHEKFSVEEYLVHALQGSVSSGQAHSLTSLAKTWAARGSRSREPSPKTEDNEGVLLTEKLKPVDYEYREEVHWATHQLRLGRGSFGEVHRMEDKQTGFQCAVKKVRLEVFRAEELMACAGLTSPRIVPLYGAVREGPWVNIFMELLEGGSLGQLVKEQGCLPEDRALYYLGQALEGLEYLHSRRILHGDVKADNVLLSSDGSHAALCDFGHAVCLQPDGLGKSLLTGDYIPGTETHMAPEVVLGRSCDAKVDVWSSCCMMLHMLNGCHPWTQFFRGPLCLKIASEPPPVREIPPSCAPLTAQAIQEGLRKEPIHRVSAAELGGKVNRALQQVGGLKSPWRGEYKEPRHPPPNQANYHQTLHAQPRELSPRAPGPRPAEETTGRAPKLQPPLPPEPPEPNKSPPLTLSKEESGMWEPLPLSSLEPAPARNPSSPERKATVPEQELQQLEIELFLNSLSQPFSLEEQEQILSCLSIDSLSLSDDSEKNPSKASQSSRDTLSSGVHSWSSQAEARSSSWNMVLARGRPTDTPSYFNGVKVQIQSLNGEHLHIREFHRVKVGDIATGISSQIPAAAFSLVTKDGQPVRYDMEVPDSGIDLQCTLAPDGSFAWSWRVKHGQLENRP
With B1, in the experiment with CD40 (myc-tagged IKKα co-transfected), the “recruitment of NIK to CD40 when IKK was co-expressed” value is listed as “clearly improved”. Moreover, in the experiment with CD40 (with or without TRAF2 co-transfection), the “recruitment of NIK to CD40, dependence on adaptor” value is “TRAF2 dependent”.

B2: TRAF3: TNF receptor associated factor 3, adaptor protein expressed from pcDNA3 (protein, UniProt Q13114 1-568, looked up)
chain: MESSKKMDSPGALQTNPPLKLHTDRSAGTPVFVPEQGGYKEKFVKTVEDKYKCEKCHLVLCSPKQTECGHRFCESCMAALLSSSSPKCTACQESIVKDKVFKDNCCKREILALQIYCRNESRGCAEQLMLGHLLVHLKNDCHFEELPCVRPDCKEKVLRKDLRDHVEKACKYREATCSHCKSQVPMIALQKHEDTDCPCVVVSCPHKCSVQTLLRSELSAHLSECVNAPSTCSFKRYGCVFQGTNQQIKAHEASSAVQHVNLLKEWSNSLEKKVSLLQNESVEKNKSIQSLHNQICSFEIEIERQKEMLRNNESKILHLQRVIDSQAEKLKELDKEIRPFRQNWEEADSMKSSVESLQNRVTELESVDKSAGQVARNTGLLESQLSRHDQMLSVHDIRLADMDLRFQVLETASYNGVLIWKIRDYKRRKQEAVMGKTLSLYSQPFYTGYFGYKMCARVYLNGDGMGKGTHLSLFFVIMRGEYDALLPWPFKQKVTLMLMDQGSSRRHLGDAFKPDPNSSSFKKPTGEMNIASGCPVFVAQTVLENGTYIKDDTIFIKVIVDTSDLPDP
modifications: full-length
notes: TNF receptor associated factor 3, adaptor protein expressed from pcDNA3
Take B2: the “recruitment to CD27 compared with the other receptors tested” value with CD27 is reported as “similar”. For the same molecule, in the experiment with p75TNFR, the “recruitment to p75TNFR compared with the other receptors tested” value was “similar”. Also, the “recruitment to BCMA compared with the other receptors tested” value in the experiment with BCMA is recorded as “similar”. The “recruitment to LTβR compared with the other receptors tested” value with LTβR was “similar”. Moreover, the “recruitment to CD40 mutant E235A” value with CD40 mutants is “reduced recruitment”. The “recruitment to TACI compared with the other receptors tested” value in the experiment with TACI is recorded as “similar”.

B3: TRAF5: TRAF5 adaptor protein, expressed as tagged deletion mutant, amino acids 145 to 557 (protein, UniProt O00463 145-557, looked up, fragment)
chain: REPVLRKDLKEHLSASCQFRKEKCLYCKKDVVVINLQNHEENLCPEYPVFCPNNCAKIILKTEVDEHLAVCPEAEQDCPFKHYGCAVTDKRRNLQQHEHSALREHMRLVLEKNVQLEEQISDLHKSLEQKESKIQQLAETIKKLEKEFKQFAQLFGKNGSFLPNIQVFASHIDKSAWLEAQVHQLLQMVNQQQNKFDLRPLMEAVDTVKQKITLLENNDQRLAVLEEETNKHDTHINIHKAQLSKNEERFKLLEGTCYNGKLIWKVTDYKMKKREAVDGHTVSIFSQSFYTSRCGYRLCARAYLNGDGSGRGSHLSLYFVVMRGEFDSLLQWPFRQRVTLMLLDQSGKKNIMETFKPDPNSSSFKRPDGEMNIASGCPRFVAHSVLENAKNAYIKDDTLFLKVAVDLTDLEDL
modifications: His tag
Take B3: the “recruitment to LTβR, folds higher than recruitment to CD40” value with LTβR (CD40 as relative standard) is “about 152 fold”. Besides, the “recruitment to CD40 mutant E235A” value with CD40 mutants is “reduced recruitment”.
